Laboratory results as given in article PMC10200060, “Inhibition of DAMP actions in the tumoral microenvironment using lactoferrin-glycyrrhizin conjugate for glioblastoma therapy” (Biomaterials Research, 2023).

How the values were obtained:
HUVEC = HUVEC co-cultured with U87MG: CCK-8 at basal chamber; type: cell-based, human; conditions: HUVEC/U87MG Transwell co-culture, 100 μM GL equivalent, 24 h
Protocol: (§1) To evaluate the inhibitory effect of Lf-GL on neovascularization in the tumor microenvironment in vitro, U87MG cells were seeded in the Transwell® insert chambers that were 6.5 mm in diameter and had 0.4 μm pore sizes (seeding density: 2.5 × 10^4 cells per well, Corning). HUVECs were seeded in the Transwell basal chamber (seeding density: 5.0 × 10^4 cells per well). GL, Lf, or Lf-GL (100 × 10^–6 M of GL equivalent concentration) were added to the insert chamber, and cells were incubated for 24 h. CCK-8 assay and HMGB1 ELISA were conducted at the basal chamber.

[1] = molecular target: T1, human recombinant HMGB1 protein (Homo sapiens, UniProt P09429); test: SPR binding affinity against HMGB1
T1 construct: purchased Abcam
T1 sequence (P09429 1-215): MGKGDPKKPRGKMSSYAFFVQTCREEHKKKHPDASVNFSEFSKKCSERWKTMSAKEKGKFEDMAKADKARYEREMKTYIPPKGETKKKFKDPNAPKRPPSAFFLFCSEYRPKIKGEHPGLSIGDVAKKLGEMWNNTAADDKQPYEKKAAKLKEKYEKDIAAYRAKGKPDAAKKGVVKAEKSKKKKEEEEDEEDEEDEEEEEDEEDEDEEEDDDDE
Protocol: To confirm the binding affinity of Lf-GL to HMGB1, Surface Plasmon Resonance (SPR) was conducted at WoojungBSC (Korea). The Reichert SR7500DC system (Reichert technologies, NA, USA) and Scrubber2 software (Biologic software, FRA) were used, and a CMDH chip (Cat #: 13,206,066, Reichert technologies) was used for immobilization of the human recombinant HMGB1 protein (Abcam). HMGB1 protein was used as a ligand, and the analytes were HMGB1 antibody (Abcam), GL, Lf and Lf-GL conjugate. The immobilization buffer was S.A. (10 × 10^–3 M, pH 4.5), and the running buffer was PBS (pH 7.4). The flow rate of the analyte was 30 μL min^−1. The association and dissociation time were 3 min each, and measurements were conducted at room temperature. Results are expressed in response units (RU) over time.
Fig. S5. Binding affinity against HMGB1. Surface Plasmon Resonance (SPR) was conducted at WoojungBSC (Korea). The Reichert SR7500DC system (Reichert technologies, NA, USA) and Scrubber2 software(Biologic software, FRA) were used and the CMDH chip (Cat #: 13206066, Reichert technologies) was used for immobilization of the human recombinant HMGB1 protein (Abcam). HMGB1 protein was used as ligand and analytes were HMGB1 antibody (Abcam), GL, Lf and Lf-GL conjugate. Immobilization buffer was 10 mM S.A. (pH 4.5) and running buffer was 1× PBS. The flow rate of the analyte was 30 μL min^-1. The association and dissociation time were 3 min each and conducted at room temperature. Results are expressed in response units (RU) over time.

HMGB1 [2] = test: HMGB1 ELISA of U87MG culture medium; type: cell-based, human; conditions: 50 μM GL equivalent, 48 h (control 131.8 ± 11.4)
Protocol: U87MG cells were seeded in 100 mm-cell culture dishes (2.2 × 10^6 cells per dish) and treated with GL, Lf, or Lf-GL (50 × 10^–6 M GL equivalent concentration) for 48 h. After incubating, cells were collected using a cell scrapper and were centrifuged for 3 min at 150 × g. Supernatant was collected as cell culture medium, and pellets were washed with cold PBS twice and transferred into a microcentrifuge tube. Tubes were centrifuged, and then pellets were resuspended in 500 μL 1X hypotonic buffer and incubated on ice. Then, 25 μL of NP40 was added and the mixture was agitated using a vortex mixer at the highest setting. Homogenates were centrifuged for 10 min at 842 × g at 4℃. Supernatant was collected as the cytoplasmic fraction, and pellets were resuspended in cell extraction buffer (50 μL) and were incubated for 30 min on ice with vortexing at 10 min intervals. Then, homogenates were centrifuged for 30 min at 14,000 × g at 4℃. Supernatant was collected as the nuclear fraction. The amount of HMGB1 in the samples was measured using a HMGB1 ELISA kit (Abbkine), and absorbance was measured at 450 nm in a micro-plate reader. A DNA assay (Quant-iT™ dsDNA Assay Kit, Invitrogen) was also conducted to express HMGB1 concentrations in equivalent amounts of DNA.

[3] = test system: orthotopic GBM (U87MG) mice model; test: Survival in orthotopic GBM mouse model; type: in vivo, Balb/c nude mice; conditions: i.v. GL equivalent 50 mg kg^−1 (Lf 5 mg kg^−1)
Protocol: To establish the orthotopic GBM mice model, GBM cells (U87MG, inoculation density: 1.0 × 10^6 cells per 10 μL) were stereotactically injected into the right striatum of Balb/c nude mice. Then, mice were randomly divided into four groups (n = 5): control, GL, Lf, and Lf-GL treated group. […] After four weeks, mice were sacrificed, and organs were harvested and fixed with 4% paraformaldehyde for further analysis.

[4] = test system: U87MG human glioma cell line; test: Cell viability test (CCK-8) in U87MG; type: cell-based; conditions: 50 μM GL equivalent
Protocol: Cell viability was determined using a cell counting kit-8 (CCK-8). U87MG and HUVECs (seeding density: 0.75 × 10^4 cells per well) in 96-well culture plates were treated with GL, Lf, or Lf-GL (25 to 200 × 10^–6 M of GL equivalent concentration) and were incubated for different periods of time (24, 48, and 72 h). After washing with PBS, they were treated with a cell culture medium containing a CCK-8 assay kit (Abbkine) and were incubated at 37 °C and 5% CO2 for 2 h. Then, absorbance was measured at 450 nm in a micro-plate reader (VLBL00D0, Thermo Fisher Scientific). Results were quantified using Sigma Plot (Systat Software, USA). To determine the effect of extracellular HMGB1 in GBM and endothelial cell proliferation, U87MG and HUVECs were seeded in 96-well culture plates (seeding density: 0.75 × 10^4 cells per well) and GL, Lf, or Lf-GL (50 × 10^–6 M GL equivalent concentration) were added to cells with or without HMGB1 protein (U87MG: 0.1 μg mL^−1, and HUVEC: 1 μg mL^−1). Cells were incubated for different periods of time (24, 48, and 72 h).

HMGB1 [5] = test: HUVEC co-cultured with U87MG: HMGB1 ELISA; type: cell-based, human; conditions: HUVEC/U87MG co-culture, 100 μM GL equivalent, 24 h (control 217.8 ± 5.9)
Protocol: as §1

[6] = SPR, HMGB1 immobilized, PBS pH 7.4, room temperature

B1: Lf-GL: lactoferrin-glycyrrhizin conjugate with ligation ratio Lf:GL 1:10, used in further experiments (conjugate, UniProt P24627 20-708, looked up)
Lactotransferrin: APRKNVRWCTISQPEWFKCRRWQWRMKKLGAPSITCVRRAFALECIRAIAEKKADAVTLDGGMVFEAGRDPYKLRPVAAEIYGTKESPQTHYYAVAVVKKGSNFQLDQLQGRKSCHTGLGRSAGWIIPMGILRPYLSWTESLEPLQGAVAKFFSASCVPCIDRQAYPNLCQLCKGEGENQCACSSREPYFGYSGAFKCLQDGAGDVAFVKETTVFENLPEKADRDQYELLCLNNSRAPVDAFKECHLAQVPSHAVVARSVDGKEDLIWKLLSKAQEKFGKNKSRSFQLFGSPPGQRDLLFKDSALGFLRIPSKVDSALYLGSRYLTTLKNLRETAEEVKARYTRVVWCAVGPEEQKKCQQWSQQSGQNVTCATASTTDDCIVLVLKGEADALNLDGGYIYTAGKCGLVPVLAENRKSSKHSSLDCVLRPTEGYLAVAVVKKANEGLTWNSLKDKKSCHTAVDRTAGWNIPMGLIVNQTGSCAFDEFFSQSCAPGADPKSRLCALCAGDDQGLDKCVPNSKEKYYGYTGAFRCLAEDVGDVAFVKNDTVWENTNGESTADWAKNLNREDFRLLCLDGTRKPVTEAQSCHLAVAPNHAVVSRSDRAAHVKQVLLHQQALFGKNGKNCPDKFCLFKSETKNLLFNDNTECLAKLGGRPTYEEYLGTEYVTAIANLKKCSTSPLLEACAFLTR
modifications: glycyrrhizin conjugate
Reduction of endothelial cell proliferation (HUVEC): 13.0 ± 0.7% | KD, equilibrium dissociation constant (KD = Kd Ka^−1) ([1]; SPR, HMGB1 immobilized): 23.1 ± 0.1 nM | Ka, association rate constant [1, 6]: (2.64±0.01)·10^4 M^-1s^-1 | Kd, dissociation rate constant [1, 6]: (3.11±0.02)·10^-4 M^-1s^-1 | Affinity for HMGB1 higher than that of HMGB1 antibody ([1]; ratio of KD values): 45 fold | HMGB1 released into the medium of U87MG cells (HMGB1 [2]): 74.0 ± 0.9 ng/mL | Mice survived up to 28 days [3]: 87.5% | Additional days of survival versus PBS control ([3]; 28 days): 5 days | Growth rate ([4]; 72 h): 68.7 ± 15.9% | Number of cells, % of the original count ([4]; after 48 h treatment): 44.1 ± 6.3% | HMGB1 level in medium (HMGB1 [5]): 176.1 ± 4.9 ng/mL
